From publication PMC7360973 (2020) come the findings set out here.

The experiment addresses Human Hsc70 (HSPA8) (human, UniProt P11142 1-646). Description: FP.

Ends that are not written are not given here.

Sequence of Human Hsc70 (HSPA8) (P11142 whole entry): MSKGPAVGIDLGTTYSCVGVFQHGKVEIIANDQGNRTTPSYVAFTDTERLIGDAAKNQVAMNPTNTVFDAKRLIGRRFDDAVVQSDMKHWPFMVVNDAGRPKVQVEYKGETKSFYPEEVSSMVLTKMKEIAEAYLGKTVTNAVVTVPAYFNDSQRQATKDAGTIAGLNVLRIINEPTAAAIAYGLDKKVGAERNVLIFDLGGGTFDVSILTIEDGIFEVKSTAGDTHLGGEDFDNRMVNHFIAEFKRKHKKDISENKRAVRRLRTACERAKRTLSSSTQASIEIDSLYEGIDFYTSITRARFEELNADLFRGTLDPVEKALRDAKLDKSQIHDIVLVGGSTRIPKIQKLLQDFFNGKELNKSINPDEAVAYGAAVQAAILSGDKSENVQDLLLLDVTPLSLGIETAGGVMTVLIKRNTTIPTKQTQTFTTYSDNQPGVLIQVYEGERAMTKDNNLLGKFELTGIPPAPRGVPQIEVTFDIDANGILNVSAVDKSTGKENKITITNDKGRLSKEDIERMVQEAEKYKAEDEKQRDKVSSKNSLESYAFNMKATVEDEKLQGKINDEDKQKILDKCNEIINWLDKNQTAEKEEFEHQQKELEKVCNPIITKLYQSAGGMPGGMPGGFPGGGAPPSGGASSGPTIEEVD

In turn, PKYSRQFSLEHVHC(fluorescein‑5‑maleimide) [Hsf1 peptide P223‐H235‐C] gave a Kd greater than 60 µM.

Consider GVKRKSPSMSNC(fluorescein‑5‑maleimide) [Hsf1 peptide G204‐N214‐C_SSS], for which the Kd is greater than 60 µM.

In turn, NRSSGSKRKC(fluorescein‑5‑maleimide) [Hsf1 peptide N200‐K208‐C_SSS] returned a Kd greater than 60 µM.

NMYGFRKVVHIEQC(fluorescein‑5‑maleimide) [Hsf1 peptide N74‐Q86‐C] had a Kd greater than 60 µM.

As usually defined, the Kd is the equilibrium constant for the complex coming apart.
